B1: POU domain, class 4, transcription factor 2, residues 256 to 327; numbered along this chain, Q12837 (parent)
chain: RDLEAFAERFKQRRIKLGVTQADVGSALANLKIPGVGSLSQSTICRFESLTLSHNNMIALKPILQAWLEEAE

Variants of: B1
Test: abundance fitness (aPCA) (normalised: wild type 0, dead -1); higher = more abundant; growth selection in yeast, the domain comes from the species named
Conditions: Homo sapiens

Abundance fitness, by site and new letter:
R1: C -0.445, E 0.368, G 0.055, L -0.354, P -0.199, S -0.235, T -0.186, V -0.107, W -0.143
D2: A -0.241, C -0.511, E -0.102, F -0.376, G -0.21, H -0.497, L -0.568, M -0.318, N 0.077, P -0.266, R -0.379, S -0.124, W -0.185, Y -0.171
L3: D -0.658, E -0.573, G -0.947, H -0.368, I 0.072, M 0.064, N -0.382, P -0.558, Q -0.437, R -0.74, T -0.327, V -0.153, W -0.283, Y -0.213
E4: A -0.048, C -0.273, D -0.282, F -0.251, G -0.368, H -0.119, I -0.002, K -0.137, L -0.165, M -0.004, P -0.335, Q -0.134, R -0.137, S -0.141, T -0.002, V -0.085, W -0.234, Y 0.13
A5: C -0.311, E -0.329, F 0.033, I -0.008, L 0.017, N 0.093, P -0.277, Q -0.055, R -0.001, S -0.167, T -0.201, V 0.004, W -0.491
A7: C -0.358, D -0.769, E -0.443, G -0.639, H -0.772, L -0.936, M -0.774, N -0.907, P -0.768, Q -1.01, S -0.455, V 0.08, W -0.709, Y -0.537
E8: A -0.232, C -0.313, D -0.172, F -0.306, G -0.119, H -0.016, I 0, K 0.007, L -0.072, M -0.137, N 0.049, P -0.862, Q -0.091, R 0.031, T -0.222, V -0.121, W -0.208, Y 0.036
R9: A -0.07, C 0.014, D 0.307, E 0.263, F -0.335, G -0.061, H 0.15, I -0.347, K 0.007, L 0.1, M 0.095, N -0.005, P -0.782, Q 0.195, S 0.018, T 0.033, W -0.136, Y -0.055
F10: C -0.817, D -0.823, E -0.755, G -0.955, I -0.632, L -0.921, M -0.694, P -0.994, Q -0.825, R -0.814, S -1, T -0.707, V -0.59
K11: A -0.337, E -0.914, F -0.761, G -0.678, H -0.901, L -0.661, M -0.706, P -0.994, Q -0.34, R -0.106, S -0.443, T -0.194, W -0.701, Y -0.781
Q12: A 0.045, C -0.865, D -0.148, E -0.016, F -0.298, H 0.011, I -0.063, M -0.194, P -1.22, S -0.186, V -0.232, W -0.269, Y -0.463
R13: A 0.066, C -0.476, D -0.462, E -0.03, F -0.375, G -0.067, H -0.115, L -0.223, N -0.401, P -1.02, Q -0.113, S -0.014, T -0.165, V 0.067, W -0.338, Y -0.761
R14: A -0.906, C -0.854, G -1.07, H -0.859, I -0.601, K -0.632, L -0.847, M -0.725, P -0.985, Q -0.819, S -0.904, T -0.698, V -0.998, Y -0.594
I15: A -0.237, C -0.405, E -0.226, F -0.36, G -0.515, H -0.451, K 0.015, L -0.101, M 0.113, N -0.521, P -0.569, Q -0.066, R -0.298, S -0.262, T 0.026, W -0.461, Y -0.444
K16: A 0.001, C -0.137, D -0.392, E 0.036, F -0.066, G -0.026, H 0.028, I -0.016, M 0.11, N -0.55, P -1.1, Q 0.004, S -0.018, T -0.015, V -0.146, W -0.403, Y -0.073
L17: A -0.394, C -0.704, D -0.681, G -0.884, H -1.06, K -0.286, N -0.458, P -0.974, Q -0.513, R -0.733, S -0.565, T -0.272, V -0.592, W -0.589, Y -0.778
G18: A -0.593, E -0.322, F -0.892, H -0.292, I -0.883, K -0.47, L -0.598, M -0.76, N -0.82, P -1.14, Q -0.446, R -0.372, S -0.652, W -0.778
V19: A 0.018, D -0.614, F -0.103, G -0.927, H -0.12, I -0.189, K 0.258, L 0.004, M 0.055, N -0.093, P -0.987, Q -0.027, R 0.03, S -0.092, T -0.307
T20: A -0.195, C -0.338, D -0.254, E -0.325, G -0.419, H -0.736, I -0.916, K -0.159, L -0.607, M -0.344, N -0.559, P -0.473, Q -0.555, R -0.464, S -0.067, V -0.964, W -0.731, Y -1.05
Q21: A -0.028, C -0.024, E -0.258, F -0.426, G -0.241, H 0.184, I 0.151, K -0.361, L 0.002, M -0.39, N -0.346, P -0.175, R -0.111, T 0.011, V 0.002, W -0.238, Y -0.194
A22: D -0.262, E -0.066, F -0.031, G -0.038, H -0.03, I -0.393, K -0.078, L -0.222, N -0.219, P -0.463, Q -0.052, R -0.138, S -0.082, T -0.347, V -0.339, W -0.302
D23: A -0.172, C -0.678, E -0.057, H -0.127, K 0.09, L -0.252, M -0.189, N -0.119, P -0.755, Q 0.047, R -0.243, S -0.068, V -0.403, W -0.495, Y -0.299
V24: A -0.067, C -0.1

Reference: the Human Domainome abundance scans (Beltran et al. 2025)
